This note sets out measurements from publication PMC7125159, “Pyrazinamide triggers degradation of its target aspartate decarboxylase” (Nature Communications, 2020).

This data set concerns the molecule itself. Briefly: dynamic light scattering; drug-free; 1 mg/mL PanD in 50 mM Tris pH 7.5, 200 mM NaCl, 298 K; octamer.

B1: Wild-type Mtb Aspartate decarboxylase PanD (PanDWT), cleaved active form (enzyme)
chain 1: MLRTMLKSKIHRATVTCADLHYVG
chain 2: SVTIDADLMDAADLLEGEQVTIVDIDNGARLVTYAITGERGSGVIGINGAAAHLVHPGDLVILIAYATMDDARARTYQPRIVFVDAYNKPIDMGHDPAFVPENAGELLDPRLGVG
notes: not shown: His6, N-terminal, kept; copies: 8 + 8
For B1, the “stoichiometry N” value was 8.
